Measurements from a protein production outcome set (Wang et al. 2014).

Assay: label from the status in PepcDB records

Sequence | protein production
MSSNNVTTDVVSVDEQAFENAGGQAVDEDGFPVVDETPAFEAEVEQETQAKVDANHPDGIADTSEDRIHGVTLEQEERIRAREAELERISAQAELGTQDGREQRTRAVAAEGSTERRREFQQRAASVEPMADPERDDPRAELSQDELATVNTEADRLATRLDGWSRAAISRRLAEAIVDGRDLTSAVVRVFEELQTAPGGTVPIDALEDIDRKEVSVEGRVTQLWEPSSPSIAQVGLIEDESGRTKLTSWKASDAPWIEEGERVRIHGAAKNWYNGRVSVAVTGWSTLHFPERGRWWDE | failed
MSSNPTSSVREFEYKAEMKQLLNLIVHSLYTHPEIFLRELISNASDALGKARFRMLSSDEGLDKSGDLKITITVDKESGSFVIEDTGIGMSEEELISNLGTVASSGTLGFMEALKEQQKEGQRLDANLIGQFGVGFYSVFMVTDEVTVETKSIESGLQGWRWKSSGQGSYTIEPVEREARGTRISFILKEEFREFAQEYRVEQIIKKYSNFVEYPIYIGSRQINSMTALWQRPKSELKQEEVNEFYKFIANDFKDPLDYLHVSVEGAVSFKALLFIPSEAPMELLYNQGALEKRGPQLYVKKVLIQHECRDLLPEYLRFVSGVVDTEDLPLNVSRELVQASPVMAKIKQILTTKLLGWFDTIAKEEPEKFRAFYKAFGTILKIGLNTDFTNRDKLIDLLRFETTKTVEGEYVTLKEYVGRMAEGQTEIYYHSGSSRAQMLAHPNLEYFRKRDIEVLLLSDPVDVFVIPSIFEYDKKPLKSIEKAEIDMSTVEPEGERLSAEGTVGVISLFKEVLGERVADVVESRRLVSSPVTLVSGKDALDSQFEKMMKMMNKDADMPSTKKILEINTAHPIIRNLAGKHAVGLSTDPVVRAAVTQLFESALLLEGDLESVADYVSRMNELVEAATRS | failed
MSSPFPADTPSSNRPSNSSPPPSSIGAGFGSSSGLDSQIGSRLHFPSSSQPHVSNSQTGPFVNDSTQFSSQRLQTDGSATNDMEGNEPARSFKSRALNHVKKVDDVTGEKVREAFEQFLEDFSVQSTDTGEVEKVYRAQIEFMKIYDLNTIYIDYQHLSMRENGALAMAISEQYYRFLPFLQKGLRRVVRKYAPELLNTSDSLKRSEGDEGQADEDEQQDDDMNGSSLPRDSGSSAAPGNGTSAMATRSITTSTSPEQTERVFQISFFNLPTVHRIRDIRSEKIGSLLSISGTVTRTSEVRPELYKASFTCDMCRAIVDNVEQSFKYTEPTFCPNPSCENRAFWTLNVTRSRFLDWQKVRIQENANEIPTGSMPRTLDVILRGDSVERAKPGDRCKFTGVEIVVPDVTQLGLPGVKPSSTLDTRGISKTTEGLNSGVTGLRSLGVRDLTYKISFLACHVISIGSNIGASSPDANSNNRETELQMAANLQANNVYQDNERDQEVFLNSLSSDEINELKEMVKDEHIYDKLVRSIAPAVFGHEAVKKGILLQMLGGVHKSTVEGIKLRGDINICVVGDPSTSKSQFLKYVVGFAPRSVYTSGKASSAAGLTAAVVRDEEGGDYTIEAGALMLADNGICCIDEFDKMDISDQVAIHEAMEQQTISIAKAGIHATLNARTSILAAANPVGGRYNRKLSLRGNLNMTAPIMSRFDLFFVILDDCNEKIDTELASHIVDLHMKRDEAIEPPFSAEQLRRYIKYARTFKPILTKEARSYLVEKYKELRKDDAQGFSRSSYRITVRQLESMIRLSEAIARANCVDEITPSFIAEAYDLLRQSIIRVDVDDVEMDEEFDNIESQSHAASGNNDDNDDGTGSGVITSEPPADIEEGQSEATARPGTSEKKKTTVTYDKYVSMMNMIVRKIAEVDREGAEELTAVDIVDWYLLQKENDLGSLAEYWEERRLAFKVIKRLVKDRILMEIHGTRHNLRDLENEENENNKTVYVIHPNCEVLDQLEPQDSS | failed
MSSPSLSPHYQKMLDDLDGQVLQLDRQVFRRLARLGYQPQVIFDVGASNSGWSYYIKQVVTEADFYLFEPLVDHVPDYQGLMEETLRVYPSFHLYKYALGDRDGTITVNVFDDPASSTTLPMTEGGPSINAVQVPLLTLDSALVKLGLPQPQVIKIDTQGNELSILRGAAQTLAKVDVLFLECWLYRGYGPKTPLLTEIAHWLLPFNFRLWDVSEPYRGPQGELTTLDCIFINTAAGLVPNWYY | failed
MSSQELVTLNVGGKIFTTRFSTIKQFPASRLARMLDGRDQEFKMVGGQIFVDRDGDLFSFILDFLRTHQLLLPTEFSDYLRLQREALFYELRSLVDLLNPYLLQPRPALVEVHFLSRNTQAFFRVFGSCSKTIEMLTGRITVFTEQPSAPTWNGNFFPPQMTLLPLPPQRPSYHDLVFQCGSDSTTDNQTGVRYVSIKPDNRKLANGTNVLGLLIDTLLKEGFHLVSTRTVSSEDKTECYSFERIKSPEVLITNETPKPETIIIPEQSQIKK | failed
MSSQLNHGTLPKISIVTPSYNQAQYLEATMRSILDQGYPDLEYIVMDGGSTDGSTEIIQKYSDRLTYWESAPDKGQADAIFRGFERATGEIFCYVNSDDLLLPGSLEMVGRWFREHPDEEWVVGGTILIDGLGIPIIRSRRGLPEADLGVKVTFKRLLLHNCGGFHQPASFWRRSAFEQAGGFDRTLRFCFDYDLFFRLAKRRPSGRIRSFLAAFRYHPASKTSTLESVFREENETLWRRYGRYLYSENQIRNFAHKQTTRDMWNNRIIKLGFYLKILNVSNAIGSLEHHHHHH | not failed
MSSRCLGCGTKFDSEAGRPRCPACRWEPEEIGGIAAYAPQFANQGGGFEASYFKVLSELEATNFWFRSRNDLILWALRKYHPKFRSFLEIGCGTGFVLSGVTGKYPEAEIFGSEIFIEGLRFASQRLPNARLMQMDARAIPFAEEFEAIGAFDVLEHIEEDETVLQQMHAALKPKGTLLVTVPQHPWLWSPLDDYAHHCRRYTANELSRKVTAAGFTILRNTSFVSFLLPAMLASRLLSRNKSVDEIDVRTEMQLPSLLNNAFRWILRAESALIGTGFDFPLGGSRLLVARKM | failed
MSSSGTSITCEVGLQLIVPDRAPVPLVARLDYSVDDPYAIRAAFHVGDDEPVEWIFARELLTVGIIRETGEGDVRIWPSQDGKERMVNIALSSPFGQARFHAQVAPLSEFLHRTYELVPAGQESDYIDIDAEIAEHLS | not failed
MSSSKKPSQQPSQINLSAEIGQFISLNQEAFAELLTFIDFAEKFTLGLVEVNFPPDVDLLIAALQNNPDCENIQFFILKCVDANLRFLRDEIIKRLSEIELESNKKLVLIVRGLENAIGVFGEYPPVLQDLNFVRDAYKRTVPHPILFILPDYAITRLAKFAPDFWAWRSGIFRFKTPAITKENAINQVKNSEILDRIEPPEKQERIDLLHRLLMEEKPTGQQVTDGNLRSYSNILHQLGQAYLSHIKPEKAREYLEEAERISENLQDELFQAEVINTLGDTYSLQRQFNLGIKYYEKSLLIARRLENRLSEINALFKLGNAYLDLRQFSQAAKFYQQCLDIEQEIGDRYSQASTYHELGRVAQNLREWEQAKTYYQQALDITIEFGDRYNQASTYHQLGMVAQKLRKWEQAKTYYQQALDITIEFGDRYNQARIYHQLAIVAQNLREWQQAKTYYQQALDLKIEFGDRYNQASTYHQLGMVAQNLREWEQAKTYYQQALDITIEFGDRYSQASTYHQLGIVAQNLREWEQAKTYYQQALDLKIEFGDRYSQASTYGQLGTLAEAQENYVEARLNLQTALEIYVEYKDEHWAGIARKILDELPE | failed
MSSTAPASQSTAEALEATASLPQAAVHDHASIMRVIGGIVLCILLAALDQTVVIPAVPAIANDLNGFGHLSWIVTAYLIVSTVTTPLYGKLSDSFGRRRLLMVAISLFILASVACALAQTLPQLILFRALQGLGGGGLMSLAQAAIADVVAPRERGRYQGYLATVWAISSIAGPLVGGWVSDHMSWRWLFWINVPLGLLAMTMCYRGLAHLKPRGGRPQVDWLGALLLAVAIVAFLLAMSWGGEAFAWISPEMAALLAISLVAVLLLAWQERRAADPMLPPRLFRNRAYVMGVGASALAALNIFLCIFALPLHFQLVRDADASMSGLLVVPFLLATVAGNFVVAWLAPRLGRMRVILTIGFVAAAVGLVSLAAVTVAVPTFFVLLAMTIGGIGLGMAMVGTLISVQNALERRDMGAGTGALLVLRSLGSSIGGALAGTLLAMEFRDALARAGVTQALDLGALRHGSEALAHLSPAVRHVLAGGVESGFHLIFAAGAVATIIALLIVRRMPDLELRSSVTEHAAKIHME | failed
MSSTSKIHAKITGPIVMIGFGSIGKGALPLIERHFEYDKKRFVIIDPHEDGELAKKHGVRFIKQAVTKDNYRELLVPLLTEGGGQGFCVNLSVDTGSVDLMTMCREIGALYIDTVVEPWLGFYFDKNAGPEKRSNYALRETLLAAKAKNPGGTTAVSTCGANPGMVSWFVKQALLDIARDTGLEFNEPKSREGWGQLAQKLGVKGIHIAERDTQRAKTPKPMNVFVNTWSVEGFVSEGLQPAELGWGTHEKWIPDNGRKHTEGCQAAIYLLQPGANTRVRTWCPTPGPQYGFLVTHNESISIADYFTVRDGQNVVYRPTCHYAYHPANDAVLSLHEMFGAEGKMQPKWHILDENEIVDGIDELGVLVYGHAKNAYWYGSQLSIEETREICPYQNATGMQVSSAVLAGMVWALENPEAGIVEADEMDFRRCLEVQKPYLGPVKGYYTDWTPLTDRPGLFPEDIDSSDPWQFKNVLVR | failed
MSSVERYLSQLVKTEPQLETLKELYIGKKWHQLTEELLKLIHSGQVNRINLVELYDSFIREFESSLNPLALVRILVGIARKNYRDLNKALEFVDYATNSKAFISADEEASLFLKSETARLKLEGGNLSGVKQILEEVGVAMESTRDLDTVVHSSYHRVCAQYYKAVGPATKYYSSALLFFQYAPLDSFTVEERVHWAYDLGVASIVAETIFNFGEILEYDIMQSLKSEKLQWLLELLEAFKYGSIEKFNQVSNDHMSYYFVL | failed
MSSVFPKVAVLLAAYNGMAWIEAQLDSILKQANVCVSVFISVDTSSDGTEAWCADYAQHHVNITLLPPAGQFGGASRNFFRLIQDVDFSSFDYVAFSDQDDIWYQDKLERALSTLMSGNHDAYSSNVVAFWPDGQRILLDKAQPQVQWDHLFEAAGPGCTYVMNRPLADAFKSSLIAQWDVAQNVSLHDWYCYAFARSHGFRWFIDPAPGMDYRQHANNQVGANTGLASLITRLKKIADGWWAGQVLLIGRLTGGSETLFAGKITGTRWMFLRLAFMAGRCRRRPRDKIFFIIACLAAMLNTPEQRNNR | failed
MSSVKDTMTTQVATVSPNQTIQEAASLMKQHNVGAIPVVEQGVLKGMLTDRDIALRTTAQGRDGQTPVSEVMSTELVSGNPNMSLEDASQLMAQHQIRRLPIVDQNNLVGIVALGDLAVNQMSNESAGSALTNISHQNIH | failed
MSTAMYHLRVPQTEEELERYYQFRWEMLRKPLHQPKGSERDGWDALAHHQMVVDEEGNLVAVGRLYINADNEASIRFMAVHPSVQDKGLGTLMAMTLESVARQEGVKRVTCSAREDAVEFFAKLGFVNQGEITTPTTTPIRHFLMIKPVASLDDILHRGDWCGQLQQAWYEHIPLSEKMGVRIQQYTGQKFITTMPETGNQNPHHTVFAGSLFSLATLTGWGLIWLMLRERHLGGTIILADAHIRYSKPISGKPNAVADLGSLSGDLDRLARGKKARVQLQVELLGGETAGAIFEGIYIVLPLEHHHHHH | failed
MSTCTLRFKNDWLKIFTCPVPSSDFLSFVGVATIDAPQHAVLSLLYDIESATEWVWKTREMRVLQELADDNEGRVVYQVVSAPWPVSDREIISRSTAYKDPETGEVFIKIESLPDFIPETSNCVRVRKLEGAWNILPLSENSCRVVFRLHIEPAGEIPSWLANIAVIDTPYHTLNNMRDMVKREKYKNPLEHHHHHH | failed
MSTDEERIYSIALTQIPGVGHIGAKRLVDGMGSATDVFRYRTELPDRLPGVNRAVVAALDSPQALKRAEQEYEFARNNRISCFTLADEDYPSRLRECDDAPVVLFFKGKANLNALHIINMVGTRNATDYGKHICVSFLQELQMLCPDVLVVSGLAYGIDINAHRSALSVELPTVGVLAHGLDRIYPSLHRKTAIDMLRQGGLLTEFLSGTNPDKHNFISRNRIVAGISDATIVVESAAKGGSLITADIAGSYHRDCFAFPGRVTDEYSKGCNQLIQDNKAVLLESASDFVKTMGWDSDLKSVKPETVQRNLFPDLSAEELRIVDILGKLGDLQINALMVQADIPINKISAILFELEMKGVIRVLAGGVYQLLR | failed
